What was measured:
Test in all cases: EMSA
Conditions in all cases: 5x buffer (3 uL in 14 uL): 20% glycerol, 5 mM MgCl2, 2.5 mM EDTA, 2.5 mM DTT, 250 mM NaCl, 50 mM Tris-HCl pH 7.5, 0.25 mg/ml poly(dI-dC); 0.5 ug protein; 10 min
[1] = target: GST-AtWRKY50-C (Arabidopsis thaliana) (UniProt Q8VWQ5)
[2] = target: GST-AtWRKY50-C;TGA2-His (Arabidopsis thaliana;Arabidopsis thaliana) (UniProt Q8VWQ5+P43273)
[3] = target: T1, TGA2-His (Arabidopsis thaliana) (UniProt P43273)
T1 sequence: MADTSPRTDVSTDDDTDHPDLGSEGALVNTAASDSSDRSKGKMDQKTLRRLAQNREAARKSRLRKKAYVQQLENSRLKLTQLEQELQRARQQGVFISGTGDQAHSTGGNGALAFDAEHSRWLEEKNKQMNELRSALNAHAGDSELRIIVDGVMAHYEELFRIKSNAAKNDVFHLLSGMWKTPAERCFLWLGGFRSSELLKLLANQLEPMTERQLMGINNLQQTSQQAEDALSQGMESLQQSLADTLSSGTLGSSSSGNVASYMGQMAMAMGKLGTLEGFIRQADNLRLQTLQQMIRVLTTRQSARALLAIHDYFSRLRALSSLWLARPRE

Chain of GST-AtWRKY50-C;TGA2-His (Arabidopsis thaliana;Arabidopsis thaliana) (Q8VWQ5 86-173, one chain of several): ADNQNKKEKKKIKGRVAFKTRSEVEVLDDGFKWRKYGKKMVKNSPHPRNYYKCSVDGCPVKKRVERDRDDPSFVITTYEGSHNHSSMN
Chain of GST-AtWRKY50-C (Arabidopsis thaliana) (Q8VWQ5 86-173): as the sequence (Q8VWQ5 86-173, one chain of several) above

With “TTTCTCTACGTCACTATTTTACTTACGTCATAGATGTGGCGGCATATATTCTTCAGGACTTTTCAGATCTAGGC (double strand) [BCD]” the binding [1] was “binds”, the binding [2] was “binds” and the binding [3] was “binds”.

In the case of “ATCGGATCCGGTGATCTATTGACTGTTTCTCTACGTCACTATTTTACTTACGTCATAGATGTGGCGGCATATA (double strand) [ABC]”, the binding [1] is reported as “binds” and the binding [3] is reported as “binds”.

With “CATCTATTGCGTAAGTAAAATAGTGACGTAGAGAAACAGTCAATAGATCACCGGATCCGAT (double strand) [ABCm2]” the binding [3] was “binds more weakly”.

With “CTCTACGCAACTATTTTACTTACGTCATAGATGTGGCGGCATATATTCTTCAGGACTTTTCAGATCTAGGC (double strand) [BCDm1]” the binding [2] was “binds” and the binding [3] was “binds”.
